{"source": "paper PMC4604100", "about": "“Melanocortin agonists stimulate lipolysis in human adipose tissue explants but not in adipocytes” (BMC Research Notes, 2015)", "origin": "cited, not measured here", "test_system": "MC1R", "conditions": "ref [24]", "from_the_text": "It is still rather unclear as to what extent peripherally expressed MCRs regulate metabolism. […] In addition, POMC expression has been identified in peripheral tissues such as the skin, testes, ovaries, placenta, adrenal glands, gastrointestinal tract, immune cells and tumors. The peripheral melanocortin system was initially examined f ...", "data": [{"molecule": "Agouti/ASIP: agouti/agouti signaling protein, endogenous melanocortin receptor antagonist (protein, UniProt P42127 23-132, looked up) Agouti-signaling protein: HLPPEEKLRDDRSLRSNSSVNLLDVPSVSIVALNKKSKQIGRKAAEKKRSSKKEASMKKVVRPRTPLSAPCVATRNSCKPPAPACCDPCASCQCRFFRSACSCRVLSLNC", "values": [{"measurement": "antagonism on MC1R (in words)", "result": "high affinity antagonist"}]}]}
